# Assay results: patent US11091749B2, “Deimmunized lysostaphin and methods of use” (TRUSTEES OF DARTMOUTH COLLEGE, priority 2014, dated 2021)
# Changes are numbered by the printed parent chain. Numbers in names are those of the source.
# B1: Flex 9: lysostaphin variant N12G, I41E, L83M, K95E, I99Q, N121G, S122D, S124G (protein, UniProt P10547 248-493, looked up, variant N12G I41E L83M K95E I99Q N121G S122D S124G)
# Lysostaphin: AATHEHSAQWLGNYKKGYGYGPYPLGINGGMHYGVDFFMNEGTPVKAISSGKIVEAGWSNYGGGNQIGLIENDGVHRQWYMHMSKYNVKVGDYVEAGQQIGWSGSTGYSTAPHLHFQRMVGDFGNSTAQDPMPFLKSAGYGKAGGTVTPTPNTGWKTNKYGTLYKSESASFTPNTDIITRTTGPFRSMPQSGVLKAGQTIHYDEVMKQDGHVWVGYTGNSGQRIYLPVRTWNKSTNTLGVLWGTIK
# B2: Flex 5: lysostaphin variant K46H, I99Q, N121G, S122D (protein, UniProt P10547 248-493, looked up, variant K46H I99Q N121G S122D)
# Lysostaphin: B1 Lysostaphin with G12N, E41I, K46H, M83L, E95K, G124S
# B3: F12: variant combining cell wall binding domain mutations with Flex 9 (or derivative) catalytic domain (Table 22) (protein)
# chain: B1 Lysostaphin with E95K, S126P, Y160H, S166N, A169G, R186T, N232Q, N236D
# Columns and labels:
# [1] = tested on: S. aureus SA113; assay: MIC assay using P. pastoris culture supernatant (MIC50); format: cell-based, Staphylococcus aureus; details: aglycosylated mutants
# Procedure: Lysostaphin MIC was determined essentially as described (Zhao, et al. (2014) supra). Briefly, 100 μl aliquots of P. pastoris culture supernatant were serially diluted in TSB. Each well was inoculated with 100 μl of ˜10^6 CFU/ml S. aureus SA113 in TSB. Microplates were incubated at 37° C. for 24 hours. […] MIC50 was quantified by measuring light scattering at 650 nm in a microplate reader.
# [2] = tested on: S. aureus cells; assay: Lytic assay of culture supernatant (SYTOX Green); format: cell-based, Staphylococcus aureus; details: single point mutants
# Procedure: (§1) S. aureus cells were grown either to mid-log or to saturation in tryptic soy broth (TSB) at 37° C. with shaking. The cells were harvested by centrifugation and washed once in phosphate buffered saline (PBS: 2.7 mM KCl, 1.5 mM KH2PO4, 8.9 mM Na2HPO4, 136.9 mM NaCl, pH 7.4). The assay was performed in 96-well, black, clear bottom plates from Greiner Bio-One (Monroe, N.C.). The final (250 μl) reaction was composed of 10 μl of P. pastoris culture supernatant, S. aureus cells at OD600=1.5, and 5 μM SYTOX Green (Thermo Fisher Scientific; Waltham, Mass.), all in PBS. Data were collected using SPECTRAMAX GEMINI Fluorescence Microplate Reader (Molecular Devices; Sunnyvale, Calif.) using an excitation/emission of 504/523 nm, and rates were determined from the slope of the steepest linear portion of the trace. Each assay was performed with 500 ng of commercially-sourced lysostaphin (ssLys) as an internal control.
# The amount of protein used in each assay was estimated from SDS-PAGE gels. Briefly, 10 μl of culture supernatant was run on a SDS-PAGE gel together with standards of 0.5 μg, 0.7 μg, and 1 μg of ssLys in separate lanes. The gel was stained using GELCODE Blue Stain Reagent from Thermo Fisher Scientific (Carlsbad, Calif.) and bands quantified using Quantity Tools from Image Lab 5.1 software (Bio-Rad Laboratories; Hercules, Calif.).
# [3] = tested on: S. aureus cells; assay: Lytic assay using purified protein (SYTOX kinetic assay); format: cell-based, Staphylococcus aureus; details: for % WT Lytic Rate: biological duplicates; for % Wild-Type Activity: 200 ng purified enzyme
# Procedure: as §1
# The activity of purified lysostaphin variants was examined using the SYTOX kinetic assay as previously described in Chapter 2, Section 3.2.6. 200 ng of purified enzyme (instead of culture supernatant) was used in each reaction.
# [4] = Thermostability by differential scanning fluorimetry; format: physicochemical
# Procedure: The relative thermostability of the lysostaphin variants was determined by differential scanning fluorimetry, as previously described (Niesen, et al. (2007) Nat. Protocols 2:2212-2221). Proteins and SYPRO Orange were diluted in PBS (final concentrations of 100 μg/ml and 5× in 20 μl reaction volume, respectively), and fluorescence was quantified at 1-degree increments from 25 to 94° C. using an Applied Biosystems ABI 7500 fast real-time PCR system. The reactions were performed using PCR Plates for Fast Thermocyclers (VWR; Radnor, Pa.). Fluorescence was quantified using the preset TAMRA parameters. Melting temperatures were determined by data analysis with the ‘DSF Analysis v3.0.xlsx’ EXCEL sheet and GraphPad Prism v.6.02 software.
# [5] = tested on: MRSA strain 3425-3; assay: MIC assay; format: cell-based, Staphylococcus aureus; details: biological duplicates
# Procedure: (§2) The MICs of wild-type lysostaphin and its variants were determined by adding 2-fold serial dilutions of enzymes into wells of a polypropylene 96-well plate (Costar 3879) containing ˜40,000 S. aureus SA113 (or S. aureus 6445, 3425-1, 3425-3) cells in Muller Hinton broth (BD) supplemented with 2% NaCl and 0.1% bovine serum albumin, yielding a total volume of 100 μl. Plates were grown overnight at 37° C. with shaking at 900 rpm on an Orbit P4 orbital shaker (Labnet; Edison, N.J.). […] The assay was performed in triplicate for each enzyme.
# [6] = tested on: S. aureus SA113; assay: MIC assay; format: cell-based, Staphylococcus aureus; details: for MIC Strain SA113: biological duplicates; for MIC: S. aureus SA113, purified enzyme
# Procedure: as §2
# [7] = tested on: S. aureus 3425-1; assay: MIC assay; format: cell-based, Staphylococcus aureus; details: biological duplicates
# Procedure: as §2
# [8] = tested on: S. aureus 6445; assay: MIC assay; format: cell-based, Staphylococcus aureus; details: biological duplicates
# [9] = tested on: pooled splenocytes; details: mouse, in vivo
# Description: HUMI mice were constructed by surgical transplantation of human bone marrow, liver, and thymus tissues into NOD/SCID/γc^−/− mice (Dartmouth Transgenics & Genetic Constructs Shared Resource) as described (Brainard, et al. (2009) J. Virol. 83:7305-21). All animals were humanized from the same human donor. Mice used experimentally had human lymphocytes as a minimum of 25% of their total peripheral blood leukocytes. Fourteen weeks post-engraftment, 12 female HUMI mice were divided into 3 groups of 4 each and immunized with a single 50 μl subcutaneous injection of 100 μg wild-type LST, 100 μg variant Flex 5, or 100 μg variant Flex 9 in complete Freund's adjuvant (CFA). Two weeks following the immunization, mice were sacrificed and splenocytes were harvested and pooled for each group. Pooled splenocytes (5×10^5/well) were plated in triplicate into 96-well plates with medium containing 5% fetal calf serum, 1-glutamine, antibiotics, and a final concentration of 10 μg/ml LST or variants (or 1% DMSO as a control). […]
# In vivo immunogenicity was evaluated using NOD/SCID/γc^−/− mice that had been surgically humanized with human immune cells, liver tissue, and thymus tissue (HUMI mice). […] Cell proliferation was measured by tritiated thymidine uptake at 72 hours.
# [10] = tested on: pooled splenocytes; assay: Transgenic DR4 murine immunogenicity study (memory response, splenocyte proliferation); format: in vivo; details: wild-type LST primed mice, 100 μg rechallenge
# Procedure: Twelve female 6-8 week old DR4 transgenic mice (Abb Knockout/Transgenic HLA-DR4; B6.129S2-H2-Ab1tm1GruTg(HLA-DRA/H2-Ea,HLA-DRB1*0401/H2-Eb)1Kito; Taconic Farms, Germantown, N.Y.) were divided into four groups of three each and immunized with 50 μl subcutaneous injections of wild-type LST using one of the following four schemes: (i) initial immunization with 100 μg enzyme in CFA, followed by 100 μg boosts in incomplete Freund's adjuvant (IFA) on days 14 and 28; (ii) initial immunization with 20 μg enzyme in CFA, followed by 20 μg boosts in IFA on days 14 and 28; (iii) initial immunization with 100 μg enzyme in PBS buffer, followed by 100 μg boosts in PBS buffer on days 7, 14, 21 and 28; (iv) initial immunization with 20 μg enzyme in PBS buffer, followed by 20 μg boosts in PBS buffer on days 7, 14, 21 and 28. Serum IgG antibody titers against wild-type LST were measured on days 13, 20, 27, 34, and 62. […] Mice were housed without further manipulation until week 23 of the study, at which time serum IgG antibody titers were again measured and mice were divided into two experimental arms having equivalent average antibody titers. Note that during the week 9 to week 23 recovery period, two mice (the lowest titer 100 μg no adjuvant and one of the high titer 100 μg adjuvant) began suffering hair loss, weight loss, and reduced mobility and were sacrificed as per the IACUC approved protocol. […]
# [11] = tested on: MRSA strain USA400; assay: Efficacy of F12 in recurrent systemic MRSA infections; format: in vivo, DR4 HLA transgenic mice; details: for # Treated Mice Surviving: 1×10^9 MRSA USA400 i.p., 500 μg enzyme 1 hour later
# Procedure: In a similar set of experiments, the immunogenicity and efficacy of variant F12 was compared to wild-type LST in the absence of adjuvant using DR4 HLA transgenic mice. At week 0, mice were challenged with an intraperitoneal injection of 2×10^8 MRSA strain USA400, and 1 hour later the mice were treated with 500 μg wild-type LST or 500 μg variant F12, given as a single bolus subcutaneous injection. Subsequently, mice were challenged weekly with an intraperitoneal injection of 1×10^9 MRSA strain USA400, and treated as above. Antibody titers were measured weekly beginning at week 2. […] Variant F12 rescued all mice from four recurrent, systemic, MRSA infections (Table 24). The substantially lower antibody titers elicited by variant F12 indicate that this variant is […] than wild-type LST.
# [12] = tested on: MRSA strain USA400; assay: In vitro inhibitory activity (MIC); format: cell-based, Staphylococcus aureus
# Description: F11, P12 and F13 were screened for in vitro inhibitory activity against MRSA strain USA400 (FIG. 7).
molecule,measurement,setting,value
"Ser126Pro: aglycosylated lysostaphin mutant Ser126Pro, backbone of the designs",activity compared to the wild-type lysostaphin,[1],equivalent activity
Phe38Gly,"activity, % of the wild-type activity",[2],69%
Thr127Ala,activity compared to the wild-type lysostaphin,[1],equivalent activity
Ser124Tyr,"activity, % of the wild-type activity",[2],16%
"Commercial: Commercial lysostaphin purchased from Sigma, E. coli-produced",% WT Lytic Rate,[3],60 ± 20%
same,Tm,[4]; biological duplicates,47.3 °C
same,MIC Strain 3425-3,[5],0.03 µg/mL
same,MIC Strain SA113,[6],0.03 µg/mL
same,MIC Strain 3425-1,[7],0.04 µg/mL
same,MIC Strain 6445,[8],0.03 µg/mL
B1,% Wild-Type Activity,[3],57%
same,% WT Lytic Rate,[3],60 ± 20%
same,Tm,"[4]; SYPRO Orange, PBS",53.0 °C
same,Tm,[4]; biological duplicates,52.8 °C
same,reduced proliferative response relative to wild-type group,[9],65%
same,MIC Strain 3425-3,[5],0.2 µg/mL
same,MIC,[6],0.1250 µg/mL
same,concentration preventing outgrowth,"[6]; all four strains (SA113, 6445, 3425-1, 3425-3)",≤ 200 ng/mL
same,MIC Strain SA113,[6],0.04 µg/mL
same,MIC Strain 3425-1,[7],0.2 µg/mL
same,MIC Strain 6445,[8],0.13 µg/mL
B2,% Wild-Type Activity,[3],61%
same,% WT Lytic Rate,[3],70 ± 30%
same,Tm,"[4]; SYPRO Orange, PBS",55.7 °C
same,Tm,[4]; biological duplicates,55.8 °C
same,reduced proliferative response relative to wild-type group,[9],50%
same,proliferation of pooled splenocytes,[10],at or below background levels
same,MIC Strain 3425-3,[5],0.05 µg/mL
same,MIC,[6],0.1042 µg/mL
same,MIC Strain SA113,[6],0.02 µg/mL
same,MIC Strain 3425-1,[7],0.11 µg/mL
same,MIC Strain 6445,[8],0.06 µg/mL
B3,recurrent systemic MRSA infections from which mice were rescued,"[11]; 500 μg s.c., weekly challenges, no adjuvant",four
same,# Treated Mice Surviving,[11]; Week 1,9
same,# Treated Mice Surviving,[11]; Week 2,8
same,# Treated Mice Surviving,[11]; Week 3,7
same,# Treated Mice Surviving,[11]; Week 4,6
same,MIC activity relative to wild-type LST,[12],25%
same,retained original MIC activity after heating,[12]; 50° C. for 1 hour prior to assay,50%
